Test results as given in publication PMC7027807.

Target: CP-His-CP MS2 dimer (bacteriophage MS2)
Assay: cryo-EM structure; large particles (~330 Å) of the same CP-His-CP sample; icosahedral T = 4 reconstruction at 6 Å, x100k and x150k datasets together; coat protein dimers of PDB 5TC1 fitted as rigid bodies

stoichiometry N (coat proteins): 240
Substance: CP-His-CP MS2 dimer
